Data as given in publication PMC4631893, “Pseudomonas aeruginosa Exopolyphosphatase Is Also a Polyphosphate: ADP Phosphotransferase” (Enzyme Research, 2015).

Columns and labels:
[1] = tested on: Nc1ncnc2c1ncn2[C@@H]1O[C@H](COP(=O)(O)OP(=O)(O)O)[C@@H](O)[C@H]1O; experiment: phosphotransferase activity, ATP by luciferin-luciferase; assay type: biochemical, Pseudomonas aeruginosa; conditions: polyP25 or polyP65 as phosphate donor, 5 mM Mg2+, Tris-HCl pH 8.0, 37°C, one rounded value for both variants and both polyP, data not shown
[2] = biological target: T1, paPpx(1–506) (Pseudomonas aeruginosa, UniProt Q9ZN70); conditions: 8 μM polyP65, 5 mM Mg2+, Tris-HCl pH 8.0, 37°C; nonessential activator, sigmoid curve
T1 construct: gene ppx
T1 sequence (Q9ZN70 whole entry): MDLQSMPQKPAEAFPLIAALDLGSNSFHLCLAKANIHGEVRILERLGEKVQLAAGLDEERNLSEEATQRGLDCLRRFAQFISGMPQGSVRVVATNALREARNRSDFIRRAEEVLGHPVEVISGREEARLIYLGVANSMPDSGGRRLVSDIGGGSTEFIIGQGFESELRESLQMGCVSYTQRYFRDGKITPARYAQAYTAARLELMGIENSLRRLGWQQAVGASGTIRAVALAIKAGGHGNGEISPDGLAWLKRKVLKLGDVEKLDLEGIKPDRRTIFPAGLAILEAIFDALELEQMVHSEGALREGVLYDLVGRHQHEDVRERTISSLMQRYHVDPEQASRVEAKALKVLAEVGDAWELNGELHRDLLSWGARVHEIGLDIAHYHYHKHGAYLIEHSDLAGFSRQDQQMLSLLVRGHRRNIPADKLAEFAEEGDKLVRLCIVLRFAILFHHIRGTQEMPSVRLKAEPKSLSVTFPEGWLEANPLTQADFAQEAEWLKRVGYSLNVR

| Molecule | Km [1] | K 0.5(app)NH4^+ [2] |
| --- | --- | --- |
| paPpx(1–506) (Pseudomonas aeruginosa PAO1) | 90 µM |  |
| N [NH4^+] |  | 10 ± 0.4 mM |
| N-paPpx(1–314) (Pseudomonas aeruginosa PAO1) | 90 µM |  |
